Data as given in PMC10718073 (Chemical Science, 2023).

Columns and labels:
Assay in all cases: native MS
[1] = biological target: AmtB from Escherichia coli (Escherichia coli) (UniProt P69681)
[2] = biological target: AqpZ with C-terminal fusion to the green fluorescent protein (Escherichia coli) (UniProt P60844)
native MS [3] = biological target: the molecule itself
native MS [4] = biological target: the molecule itself; remark: listed apart in the source

**Q.** “AmtB from Escherichia coli (from UniProt P69681 23-428) (natural protein)” was tested. Which stoichiometry N [1] did it give?
**A.** 3

**Q.** How did the stoichiometry N [2] turn out when “AqpZ with C-terminal fusion to the green fluorescent protein (from UniProt P60844 1-231) (natural protein)” was run?
**A.** 4

B1: TREK2, residues 55-335 with T58A (domain or fragment)
chain: MEGASQGGLQTVMKWKTVVAIFVVVVVYLVTGGLVFRALEQPFESSQKNTIALEKAEFLRDHVCVSPQELETLIQHALDADNAGVSPIGNSSNNSSHWDLGSAFFFAGTVITTIGYGNIAPSTEGGKIFCILYAIFGIPLFGFLLAGIGDQLGTIFGKSIARVEKVFRKKQVSQTKIRVISTILFILAGCIVFVTIPAVIFKYIEGWTALESIYFVVVTLTTVGFGDFVAGGNAGINYREWYKPLVWFWILVGLAYFAAVLSMIGDWLRVLSKKTKEEVGE
modifications: glycans, treated with EndoH to reduce the glycan heterogeneity
**Q.** Does B1 bind (native MS [3])?
**A.** binds

B2: TRAAK (K2p4.1b), residues 1-290 with N104Q and N108Q (domain or fragment)
chain: MTTAPQEPPARPLQAGSGAGPAPGRAMRSTTLLALLALVLLYLVSGALVFRALEQPHEQQAQRELGEVREKFLRAHPCVSDQELGLLIKEVADALGGGADPETQSTSQSSHSAWDLGSAFFFSGTIITTIGYGNVALRTDAGRLFCIFYALVGIPLFGILLAGVGDRLGSSLRHGIGHIEAIFLKWHVPPELVRVLSAMLFLLIGCLLFVLTPTFVFCYMEDWSKLEAIYFVIVTLTTVGFGDYVAGADPRQDSPAYQPLVWFWILLGLAYFASVLTTIGNWLRVVSRRT
**Q.** B2 was tested. Which “stoichiometry N” value (native MS [4]) did it give?
**A.** 2
